Results: the supplement of paper PMC7125110
± gives the standard error. Fewer inactive variants are shown than the library holds.

B1: glmS ribozyme (parent)
chain: AUAAAAGCGCCAGAACUACAGAAAUGUAGUUGACGAGGAGGAGGUUUAUCGAAUUUUCGGCGGAUGCCUCCAAA

Assays:
Details in all cases: with glucosamine-6-phosphate
glucosamine-6-phosphate [1] = variants of: B1; test: self-cleavage kobs at 40 uM GlcN6P; higher = faster cleavage; RNA array
Procedure, shortened: (§1)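 Barcoded ribozyme variants were transcribed in situ on sequenced MiSeq chips by E. coli RNA polymerase. At 37 °C, a hybridised Cy3 probe tracked them while glucosamine-6-phosphate (40 μM to 10 mM) in HEPES/KCl/Mg(OAc)2 buffer flowed in and tiles were imaged over ~14 h. Per-tile medians of signals normalised to baseline and to non-cleaving reference variants were fit to one- or two-exponential decays, giving kobs. kcat and KM came from weighted Michaelis–Menten fits across concentrations.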

glucosamine-6-phosphate [2] = variants of: B1; test: self-cleavage kobs at 160 uM GlcN6P; higher = faster cleavage; RNA array
Procedure, shortened: as §1

glucosamine-6-phosphate [3] = variants of: B1; test: self-cleavage kobs at 640 uM GlcN6P; higher = faster cleavage; RNA array
Procedure, shortened: as §1

glucosamine-6-phosphate [4] = variants of: B1; test: self-cleavage kobs at 2500 uM GlcN6P; higher = faster cleavage; RNA array
Procedure, shortened: as §1

glucosamine-6-phosphate [5] = variants of: B1; test: self-cleavage kobs at 10000 uM GlcN6P; higher = faster cleavage; RNA array
Procedure, shortened: as §1

Variant	self-cleavage kobs at 40 uM GlcN6P (glucosamine-6-phosphate [1]) [s⁻¹]	self-cleavage kobs at 160 uM GlcN6P (glucosamine-6-phosphate [2]) [s⁻¹]	self-cleavage kobs at 640 uM GlcN6P (glucosamine-6-phosphate [3]) [s⁻¹]	self-cleavage kobs at 2500 uM GlcN6P (glucosamine-6-phosphate [4]) [s⁻¹]	self-cleavage kobs at 10000 uM GlcN6P (glucosamine-6-phosphate [5]) [s⁻¹]
A33U C34A	< 1e-05	< 1e-05	< 1e-05	< 1e-05	< 1e-05
A6G U31C C71U	< 1e-05	–	–	–	–
C10A C11A	< 1e-05	–	< 1e-05	–	< 1e-05
A39U U55C	0.000475 ± 4.6e-05	0.00102 ± 0.00013	0.00443 ± 0.00071	0.00902 ± 0.002	0.0244 ± 0.0038
G41U G44A	< 1e-05	< 1e-05	< 1e-05	< 1e-05	< 1e-05
A42C U45A	< 1e-05	–	< 1e-05	< 1e-05	–
G40U G41U U46A U47C G51U	< 1e-05	–	–	–	–
C8G U30G	< 1e-05	< 1e-05	< 1e-05	–	< 1e-05
U31C G43U G66A	< 1e-05	–	–	–	–
C16A U57G	< 1e-05	–	–	–	–
G7C C58U	< 1e-05	–	–	< 1e-05	< 1e-05
U54A G63A	< 1e-05	< 1e-05	< 1e-05	–	–
A14G U45A A48U	0.000108 ± 2.6e-05	–	–	–	0.00563 ± 0.001
A12U A52C	< 1e-05	–	–	–	4.23e-05 ± 1.8e-05
G41A C58A	< 1e-05	–	< 1e-05	–	–
A14C G44C C50U U65G	< 1e-05	–	–	–	–
U47G U49G C50G G51A C61A	9.02e-05 ± 2.3e-05	–	–	–	0.000142 ± 3.3e-05
G37U G41U U65C	< 1e-05	–	–	–	–
A33C C71G	< 1e-05	–	–	< 1e-05	–
A14C A15U U56G	0.000225 ± 6.3e-05	–	0.00145 ± 0.00027	0.00238 ± 0.00057	0.00809 ± 0.0027
G43C G62C	< 1e-05	< 1e-05	< 1e-05	< 1e-05	–
A36U G43A U56A	< 1e-05	–	< 1e-05	–	< 1e-05
G29A A39C G59U	< 1e-05	–	–	–	–
G32C G43C A48G	< 1e-05	–	–	–	–
A36U G44U	< 1e-05	< 1e-05	< 1e-05	< 1e-05	< 1e-05

Variant	self-cleavage kobs at 40 uM GlcN6P (glucosamine-6-phosphate [1]) [s⁻¹]	self-cleavage kobs at 160 uM GlcN6P (glucosamine-6-phosphate [2]) [s⁻¹]	self-cleavage kobs at 640 uM GlcN6P (glucosamine-6-phosphate [3]) [s⁻¹]	self-cleavage kobs at 2500 uM GlcN6P (glucosamine-6-phosphate [4]) [s⁻¹]	self-cleavage kobs at 10000 uM GlcN6P (glucosamine-6-phosphate [5]) [s⁻¹]
G38A A52G	< 1e-05	–	< 1e-05	< 1e-05	< 1e-05
G51A U57A	< 1e-05	–	–	–	< 1e-05
G7U G32C	< 1e-05	–	< 1e-05	< 1e-05	< 1e-05
G9A G13A G63C	< 1e-05	–	–	–	< 1e-05
A14G U31G G40A C71A	5.41e-05 ± 1.8e-05	–	–	–	0.000822 ± 0.00016
A12U G38A G41A A64G	< 1e-05	–	–	–	< 1e-05
U31A U49C	< 1e-05	< 1e-05	< 1e-05	< 1e-05	< 1e-05
U49C C70A	< 1e-05	–	–	–	–
A6G C8A G32C	< 1e-05	–	–	< 1e-05	–
G13U A14U U30C A33C C71A	< 1e-05	–	–	–	< 1e-05
A33U G40A A42C	< 1e-05	< 1e-05	< 1e-05	< 1e-05	< 1e-05
A6C G37A	< 1e-05	< 1e-05	–	< 1e-05	< 1e-05
G9C A12G G37C U47C G60A C71U	< 1e-05	–	–	–	< 1e-05
C8U G59C	< 1e-05	–	< 1e-05	< 1e-05	< 1e-05
G7C C10U U30A U46A	< 1e-05	–	–	–	–
A36C G40A U56G	< 1e-05	–	–	–	–
A6C C10U C67A	< 1e-05	–	–	–	–
U49G G51A G63A	< 1e-05	–	–	–	< 1e-05
G9C U31G	< 1e-05	< 1e-05	< 1e-05	< 1e-05	–
A14C C34G G40U	< 1e-05	–	–	< 1e-05	–
C10U C11G C16A C50G	9.19e-05 ± 2.5e-05	–	0.000376 ± 9.9e-05	0.000168 ± 3.4e-05	8e-05 ± 2.2e-05
A12U U57A G59C G60C	< 1e-05	–	–	–	–
G9C A42U	< 1e-05	< 1e-05	–	< 1e-05	–
G9A C11G G35U G37U C61U	< 1e-05	–	–	< 1e-05	–
C11A G37U A42U C68U	< 1e-05	–	< 1e-05	–	–

Variant	self-cleavage kobs at 40 uM GlcN6P (glucosamine-6-phosphate [1]) [s⁻¹]	self-cleavage kobs at 160 uM GlcN6P (glucosamine-6-phosphate [2]) [s⁻¹]	self-cleavage kobs at 640 uM GlcN6P (glucosamine-6-phosphate [3]) [s⁻¹]	self-cleavage kobs at 2500 uM GlcN6P (glucosamine-6-phosphate [4]) [s⁻¹]	self-cleavage kobs at 10000 uM GlcN6P (glucosamine-6-phosphate [5]) [s⁻¹]
A6G A33U A53U	< 1e-05	–	–	–	< 1e-05
C16U G60U	< 1e-05	< 1e-05	< 1e-05	–	–
A14U C34U	< 1e-05	< 1e-05	< 1e-05	< 1e-05	< 1e-05
C16A G44U	< 1e-05	< 1e-05	< 1e-05	–	–
U54G C68U	0.000327 ± 2.5e-05	0.000869 ± 0.00021	0.000824 ± 0.00012	0.0036 ± 0.00084	0.00395 ± 0.00053
A6G G66U	< 1e-05	< 1e-05	< 1e-05	–	–
C61G A64U C68A	< 1e-05	–	–	–	–
G7A A15G G51U C58G A64U C70A	0.000522 ± 0.00019	–	–	–	0.000462 ± 0.00017
A12G U46C U49G C70U	< 1e-05	–	–	–	3.44e-05 ± 1.4e-05
C11A C16G A36U G40A U55A U56A	< 1e-05	–	–	–	< 1e-05
U49C G63A	< 1e-05	< 1e-05	–	–	< 1e-05
C10A G37C A42C C70A	< 1e-05	–	–	–	–
C50G C58A C67U	3.98e-05 ± 1.7e-05	–	–	–	5.82e-05 ± 1.9e-05
C50G C61U	3.66e-05 ± 1.1e-05	6.61e-05 ± 1.4e-05	9.4e-05 ± 1.3e-05	0.000423 ± 0.0002	–
U55G C67U	0.000342 ± 3.5e-05	0.000573 ± 9.2e-05	0.000864 ± 0.00017	0.00136 ± 0.00026	0.0121 ± 0.0017
C34G G44A G60C	< 1e-05	–	–	< 1e-05	< 1e-05
G35U G37C U56G	< 1e-05	–	< 1e-05	< 1e-05	–
C11U G29U C34U A53U U56A	< 1e-05	–	–	< 1e-05	–
C11A G32U A42G	< 1e-05	–	–	–	–
C61U C68U C70A	< 1e-05	–	–	< 1e-05	–
A15G U31A A36U	< 1e-05	–	–	–	–
G40U	0.000216 ± 1.5e-05	0.00045 ± 1.9e-05	0.00199 ± 0.0002	0.00539 ± 0.00024	–
G44A U45C A48U	< 1e-05	–	–	–	–
C8G A39U A53C C58U	< 1e-05	–	–	–	–
G9C C10G	< 1e-05	< 1e-05	< 1e-05	< 1e-05	< 1e-05

Variant	self-cleavage kobs at 40 uM GlcN6P (glucosamine-6-phosphate [1]) [s⁻¹]	self-cleavage kobs at 160 uM GlcN6P (glucosamine-6-phosphate [2]) [s⁻¹]	self-cleavage kobs at 640 uM GlcN6P (glucosamine-6-phosphate [3]) [s⁻¹]	self-cleavage kobs at 2500 uM GlcN6P (glucosamine-6-phosphate [4]) [s⁻¹]	self-cleavage kobs at 10000 uM GlcN6P (glucosamine-6-phosphate [5]) [s⁻¹]
G13C G51C	< 1e-05	–	< 1e-05	< 1e-05	< 1e-05
U30A A33U G41U A53C G60A C68G	< 1e-05	< 1e-05	< 1e-05	–	< 1e-05
C16G C34G G44U C50U U69C	< 1e-05	–	–	–	–
G7A U57G C61A	< 1e-05	–	–	–	–
A33U G41A	< 1e-05	–	< 1e-05	–	4.33e-05 ± 9.1e-06
G37C C50G C58G C67G	0.00014 ± 3.9e-05	0.00039 ± 0.00012	0.000349 ± 8.1e-05	6.52e-05 ± 2.2e-05	0.000593 ± 0.00017
G38C A39U	< 1e-05	–	< 1e-05	–	–
G43A U47G U54A	< 1e-05	–	–	–	–
C10U A52U U65A	< 1e-05	–	< 1e-05	< 1e-05	< 1e-05
C10A G41U G44U	< 1e-05	< 1e-05	< 1e-05	< 1e-05	–
G21A C70A	3.65e-05 ± 1.8e-05	–	–	7.55e-05 ± 1.5e-05	0.000262 ± 6.9e-05
G13C A52C G62U	< 1e-05	–	–	–	< 1e-05
A36G G38A C58A	< 1e-05	–	< 1e-05	–	< 1e-05
U31C U49G C67U	< 1e-05	–	–	–	–
A52G A64U	< 1e-05	< 1e-05	–	–	–
A15G U47A C50A	< 1e-05	–	–	–	–
A6C G62U	< 1e-05	< 1e-05	–	< 1e-05	< 1e-05
C11G G32A	< 1e-05	< 1e-05	< 1e-05	–	< 1e-05
G7A G9U U31G G41A U65C	< 1e-05	< 1e-05	< 1e-05	–	–
A15U G38U C50G	0.000125 ± 3.7e-05	–	–	–	–
C10G C50A	< 1e-05	–	< 1e-05	–	–
A12U A33C A42C	< 1e-05	–	–	–	–
U65C C68U C71U	< 1e-05	–	–	–	–
G9U G40U G44C G60U	< 1e-05	–	–	–	< 1e-05
U54G C71U	0.00109 ± 0.00015	0.00194 ± 0.00038	0.00857 ± 0.00098	0.0283 ± 0.0078	0.0636 ± 0.013
